Reference: patent US20190170753A1 (ICAHN SCHOOL OF MEDICINE AT MOUNT SINAI, published 2019)

Assays:
Assay in all cases: peptide EIA, 2 ug/mL IgG;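 further: purified mouse IgG binding to individually well-coated synthetic peptides, detected with peroxidase anti-mouse IgG Fc and o-phenylenediamine, IgG incubated at least 1 h at room temperature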
HCV core peptide 1 = molecular target: T1, HCV core peptide 1 (hepatitis C virus, N-terminal biotin; C-terminal amide)
T1 construct: range 1-15
Procedure: (§1) The coated plates were kept dry in a sealed foil pouch and stored at <10 degrees C. until ready for use. A peptide coated plate for each test antibody was blocked using 3% BSA in PBS with 0.5% Tween 20. The blocked plates were washed with distilled water and a 2 ug/mL solution of purified IgG from each test sample diluted in BSA block solution was added to each peptide coated well of the blocked plate and allowed to incubate at room temperature for at least one hour. Following incubation the plates were washed with distilled water. A 200 ng/mL solution of peroxidase labeled F(ab′)2 fragment goat anti-mouse IgG Fc fragment specific (Jackson Immunoresearch) in BSA block solution was added to all wells and incubated at room temperature for 30 minutes. The plates were washed with distilled water and o-phenylenediamine substrate was used as the chromagen to generate signal. Plates were read at 492 nm and the results were analyzed.

HCV core peptide 4 = molecular target: T2, HCV core peptide 4 (hepatitis C virus, N-terminal biotin; C-terminal amide)
T2 construct: range 7-21
Procedure: as §1

HCV core peptide 7 = molecular target: T3, HCV core peptide 7 (hepatitis C virus, N-terminal biotin; C-terminal amide)
T3 construct: range 13-27
Procedure: as §1

HCV core peptide 12 = molecular target: T4, HCV core peptide 12 (hepatitis C virus, N-terminal biotin; C-terminal amide)
T4 construct: range 23-37
Procedure: as §1

HCV core peptide 14 = molecular target: T5, HCV core peptide 14 (hepatitis C virus, N-terminal biotin; C-terminal amide)
T5 construct: range 27-41
Procedure: as §1

HCV core peptide 17 = molecular target: T6, HCV core peptide 17 (hepatitis C virus, N-terminal biotin; C-terminal amide)
T6 construct: range 33-47
Procedure: as §1

HCV core peptide 23 = molecular target: T7, HCV core peptide 23 (hepatitis C virus, N-terminal biotin; C-terminal amide)
T7 construct: range 45-59
Procedure: as §1

HCV core peptide 24 = molecular target: T8, HCV core peptide 24 (hepatitis C virus, N-terminal biotin; C-terminal amide)
T8 construct: range 47-61
Procedure: as §1

HCV core peptide 25 = molecular target: T9, HCV core peptide 25 (hepatitis C virus, N-terminal biotin; C-terminal amide)
T9 construct: range 49-63
Procedure: as §1

HCV core peptide 26 = molecular target: T10, HCV core peptide 26 (hepatitis C virus, N-terminal biotin; C-terminal amide)
T10 construct: range 51-65
Procedure: as §1

HCV core peptide 27 = molecular target: T11, HCV core peptide 27 (hepatitis C virus, N-terminal biotin; C-terminal amide)
T11 construct: range 53-67
Procedure: as §1

HCV core peptide 29 = molecular target: T12, HCV core peptide 29 (hepatitis C virus, N-terminal biotin; C-terminal amide)
T12 construct: range 57-71
Procedure: as §1

HCV core peptide 30 = molecular target: T13, HCV core peptide 30 (hepatitis C virus, N-terminal biotin; C-terminal amide)
T13 construct: range 59-73
Procedure: as §1

HCV core peptide 35 = molecular target: T14, HCV core peptide 35 (hepatitis C virus, N-terminal biotin; C-terminal amide)
T14 construct: range 69-83
Procedure: as §1

HCV core peptide 40 = molecular target: T15, HCV core peptide 40 (hepatitis C virus, N-terminal biotin; C-terminal amide)
T15 construct: range 79-93
Procedure: as §1

HCV core peptide 41 = molecular target: T16, HCV core peptide 41 (hepatitis C virus, N-terminal biotin; C-terminal amide)
T16 construct: range 81-95
Procedure: as §1

HCV core peptide 42 = molecular target: T17, HCV core peptide 42 (hepatitis C virus, N-terminal biotin; C-terminal amide)
T17 construct: range 83-97
Procedure: as §1

HCV core peptide 55 = molecular target: T18, HCV core peptide 55 (hepatitis C virus, HELM PEPTIDE1{[O=C1N[C@H]2[C@H](CS[C@H]2CCCCC(=O)[*:2])N1].S.G.S.G.P.T.D.P.R.R.R.S.R.N.L.G.K.V.I.[am]}$$$$V2.0; SMILES …)
T18 construct: also called aa 109-123
T18 peptide: SGSGPTDPRRRSRNLGKVI
Procedure: as §1

HCV core peptide 57 = HCV core peptide 57 (hepatitis C virus, N-terminal biotin; C-terminal amide)
Procedure: as §1

HCV core peptide 58 = HCV core peptide 58 (hepatitis C virus, N-terminal biotin; C-terminal amide)
Procedure: as §1

HCV core peptide 62 = molecular target: T19, HCV core peptide 62 (hepatitis C virus, N-terminal biotin; C-terminal amide)
T19 construct: range 123-137
Procedure: as §1

HCV core peptide 64 = HCV core peptide 64 (hepatitis C virus, N-terminal biotin; C-terminal amide)
Procedure: as §1

HCV core peptide 69 = HCV core peptide 69 (hepatitis C virus, N-terminal biotin; C-terminal amide)
Procedure: as §1

HCV core peptide 73 = HCV core peptide 73 (hepatitis C virus, N-terminal biotin; C-terminal amide)
Procedure: as §1

HCV core peptide 75 = molecular target: T20, HCV core peptide 75 (hepatitis C virus, N-terminal biotin; C-terminal amide)
T20 construct: range 149-163
Procedure: as §1

HCV core peptide 76 = HCV core peptide 76 (hepatitis C virus, N-terminal biotin; C-terminal amide)
Procedure: as §1

HCV core peptide 79 = molecular target: T21, HCV core peptide 79 (hepatitis C virus, N-terminal biotin; C-terminal amide)
T21 construct: range 157-171
Procedure: as §1

HCV core peptide 81 = molecular target: T22, HCV core peptide 81 (hepatitis C virus, N-terminal biotin; C-terminal amide)
T22 construct: range 161-175
Procedure: as §1

HCV core peptide 83 = molecular target: T23, HCV core peptide 83 (hepatitis C virus, N-terminal biotin; C-terminal amide)
T23 construct: range 165-179
Procedure: as §1

HCV core peptide 84 = HCV core peptide 84 (hepatitis C virus, N-terminal biotin; C-terminal amide)
Procedure: as §1

HCV core peptide 85 = HCV core peptide 85 (hepatitis C virus, N-terminal biotin; C-terminal amide)
Procedure: as §1

HCV core peptide 86 = HCV core peptide 86 (hepatitis C virus, N-terminal biotin; C-terminal amide)
Procedure: as §1

HCV core peptide 88 = HCV core peptide 88 (hepatitis C virus, N-terminal biotin; C-terminal amide)
Procedure: as §1

Measured: OD (A492 nm)

B1: Neo4 mouse monoclonal antibody (antibody, V domains shown)
VH: QIQLKESGPAVIKPSQSLSLTCIVSGFSITSSVYCWQWIRQPPGKGLEWMGRICYDGSVDYSPSITSRGTISRDTSLNKVFFQLSSVTNEDTAMYYCSRENHIDYYDTTYPSFDVWGAGTTVTVSS
VL: DIVLTQSPASLIVSLGQRATISCRASKSVNEYGYTYMHWYQQKPGLPPKLLIYLASNLDSGVPARFSGSGSGTDFTLNIHPVEEEDAATYYCQHSRELPYTFGGGTKLEIKR
notes: Mouse hybridoma antibody, isotype IgG1, purified with Protein G; also called HCV Neo4
0.07 OD: HCV core peptide 7 | HCV core peptide 12
0.06 OD: HCV core peptide 1 | HCV core peptide 4 | HCV core peptide 14
0.1 OD: HCV core peptide 75
0.97 OD: HCV core peptide 55
0.04 OD: HCV core peptide 17 | HCV core peptide 25 | HCV core peptide 26 | HCV core peptide 27 | HCV core peptide 29 | HCV core peptide 35 | HCV core peptide 41 | HCV core peptide 42 | HCV core peptide 64 | HCV core peptide 73 | HCV core peptide 81
0.05 OD: all other assays above
